Data: PMC3563353 (2012)
Square brackets hold non-standard residues; d marks the D form. Primed or numbered codes have the meaning given here. Side chains are listed from the residue outwards. * marks the point of attachment. IRDye800CW′ = near-infrared fluorescent dye (LiCor), attached as the maleimide; Cy5 = Cy5 near-infrared fluorescent dye; Butanoyl(4-Ph) = O=C(CCCc1ccccc1)*; Mpa = O=C(O)CCS

Experiments:
[1] = target: T1, MC1RL-800; assay: competition binding with Eu-NDP-α-MSH on A375/hMC1R cells
T1 chain: {Butanoyl(4-Ph)}-H[dF]RWGK([Mpa-IRDye800CW′])-NH2

[2] = target: T2, MC1RL-Cy5; assay: as above
T2 chain: {Butanoyl(4-Ph)}-H[dF]RWGK([Mpa-Cy5])-NH2

B1: MC1R (protein)
chain: MAVQGSQRRLLGSLNSTPTAIPQLGLAANQTGARCLEVSISDGLFLSLGLVSLVENALVVATIAKNRNLHSPMYCFICCLALSDLLVSGSNVLETAVILLLEAGALVARAAVLQQLDNVIDVITCSSMLSSLCFLGAIAVDRYISIFYALRYHSIVTLPRARRAVAAIWVASVVFSTLFIAYYDHVAVLLCLVVFFLAMLVLMAVLYVHMLARACQHAQGIARLHKRQRPVHQGFGLKGAVTLTILLGIFFLCWGPFFLHLTLIVLCPEHPTCGCIFKNFNLFLALIICNAIIDPLIYAFHSQELRRTLKEVLTCSW
[1]
  Ki: 400 pM
[2]
  Ki: 300 pM
